In patent publication US11352401:

Target: T1, HLA-A*02 (human)
T1 construct: MHC monomer made peptide-receptive by UV cleavage of a UV-sensitive ligand; also called peptide-receptive MHC class I monomer
Assay: UV peptide-exchange ELISA; ++++ = yield >75%

| Binder | peptide exchange yield |
| --- | --- |
| HIMPTVHTV [HIMPTVHTV (SEQ ID NO: 390)] | > 75% |
| FLSTVTSV [FLSTVTSV (SEQ ID NO: 126)] | > 75% |
| NLWGGQGLLGV [NLWGGQGLLGV (SEQ ID NO: 130)] | > 75% |
| ALLEMFPEITV [ALLEMFPEITV (SEQ ID NO: 122)] | > 75% |
| TLMEQPLTTL [TLMEQPLTTL (SEQ ID NO: 389)] | > 75% |
| ALVDTLTGI [ALVDTLTGI (SEQ ID NO: 121)] | > 75% |
| GLDGSLVFL [GLDGSLVFL (SEQ ID NO: 127)] | > 75% |
| SVASVLLYL [SVASVLLYL (SEQ ID NO: 124)] | > 75% |
| VLYDKDAVYV [VLYDKDAVYV (SEQ ID NO: 129)] | > 75% |
| MTLPVDAVISV [MTLPVDAVISV (SEQ ID NO: 133)] | > 75% |
| ALSSVLHSI [ALSSVLHSI (SEQ ID NO: 118)] | > 75% |
| ILLPYLQTL [ILLPYLQTL (SEQ ID NO: 393)] | > 75% |
| FSIPEGALVAV [FSIPEGALVAV (SEQ ID NO: 388)] | > 75% |
| SLIDMRGIETV [SLIDMRGIETV (SEQ ID NO: 391)] | > 75% |
| VLQPFLPSI [VLQPFLPSI (SEQ ID NO: 125)] | > 75% |
| ILDERQVLL [ILDERQVLL (SEQ ID NO: 114)] | > 75% |
| AVLTGLVEV [AVLTGLVEV (SEQ ID NO: 113)] | > 75% |
| FLGTTPTL [FLGTTPTL (SEQ ID NO: 128)] | > 75% |
| SVSDGIHSV [SVSDGIHSV (SEQ ID NO: 112)] | > 75% |
| ALLANLPAV [ALLANLPAV (SEQ ID NO: 120)] | > 75% |
| FLDPNARPLV [FLDPNARPLV (SEQ ID NO: 117)] | > 75% |
| LLKEFVQRV [LLKEFVQRV (SEQ ID NO: 131)] | > 75% |
| VLMEENSKL [VLMEENSKL (SEQ ID NO: 116)] | > 75% |
| ALWLVDPLTV [ALWLVDPLTV (SEQ ID NO: 132)] | > 75% |
| RTADITVTV [RTADITVTV (SEQ ID NO: 119)] | > 75% |
| SLFKDQMEL [SLFKDQMEL (SEQ ID NO: 392)] | > 75% |
| MLLETQDALYV [MLLETQDALYV (SEQ ID NO: 115)] | > 75% |

Target: T2, HLA-A*03 (human)
T2 construct: MHC monomer made peptide-receptive by UV cleavage of a UV-sensitive ligand; also called peptide-receptive MHC class I monomer
Assay: UV peptide-exchange ELISA; ++++ = yield >75%

| Binder | peptide exchange yield |
| --- | --- |
| KVKDTPGLGK [KVKDTPGLGK (SEQ ID NO: 203)] | > 75% |
| AVFDKFIRY [AVFDKFIRY (SEQ ID NO: 204)] | > 75% |
| KLAELEGALQK [KLAELEGALQK (SEQ ID NO: 202)] | > 75% |

Target: T3, HLA-B*44 (human)
T3 construct: MHC monomer made peptide-receptive by UV cleavage of a UV-sensitive ligand; also called peptide-receptive MHC class I monomer
Assay: UV peptide-exchange ELISA; +++ = yield >50%
Excerpt: Candidate peptides for T cell based therapies according to the present invention were further tested for their MHC binding capacity (affinity). The individual peptide-MHC complexes were produced by UV-ligand exchange, where a UV-sensitive peptide is cleaved upon UV-irradiation, and exchanged with the peptide of interest as analyzed. Only peptide candidates that can effectively bind and stabilize the peptide-receptive MHC molecules prevent dissociation of the MHC complexes. To determine the yield of the exchange reaction, an ELISA was performed based on the detection of the light chain (β2m) of stabilized MHC complexes. The assay was performed as generally described in Rodenko et al. (Rodenko et al., 2006).
96 well MAXISorp plates (NUNC) were coated over night with 2 ug/ml streptavidin in PBS at room temperature, washed 4× and blocked for 1 h at 37° C. in 2% BSA containing blocking buffer. […] Peptide-MHC monomers of the UV-exchange reaction were diluted 100-fold in blocking buffer. Samples were incubated for 1 h at 37° C., washed four times, incubated with 2 ug/ml HRP conjugated anti-β2m for 1h at 37° C., washed again and detected with TMB solution that is stopped with […]. Absorption was measured at 450 nm.

| Binder | peptide exchange yield |
| --- | --- |
| RELENCFQIQ [RELENCFQIQ (SEQ ID NO: 357)] | 50 to 75% |
| RELQHEHSL [RELQHEHSL (SEQ ID NO: 481)] | 50 to 75% |
| AEIQPQTQV [AEIQPQTQV (SEQ ID NO: 479)] | 50 to 75% |
| TEREWADEW [TEREWADEW (SEQ ID NO: 482)] | 50 to 75% |
| GEVHPSEMI [GEVHPSEMI (SEQ ID NO: 367)] | 50 to 75% |
| KEGDLGGKQW [KEGDLGGKQW (SEQ ID NO: 330)] | 50 to 75% |
| EEATGQFHVY [EEATGQFHVY (SEQ ID NO: 344)] | 50 to 75% |
| EEVNYINTF [EEVNYINTF (SEQ ID NO: 351)] | 50 to 75% |
| SEFMQVIF [SEFMQVIF (SEQ ID NO: 323)] | 50 to 75% |
| AEMLESVIKNY [AEMLESVIKNY (SEQ ID NO: 321)] | 50 to 75% |
| AELDKLTSV [AELDKLTSV (SEQ ID NO: 363)] | 50 to 75% |
| HEFSSPSHL [HEFSSPSHL (SEQ ID NO: 342)] | 50 to 75% |
| GECDVFKEIL [GECDVFKEIL (SEQ ID NO: 350)] | 50 to 75% |
| QENSYQSRL [QENSYQSRL (SEQ ID NO: 477)] | 50 to 75% |
| AETLSTIQI [AETLSTIQI (SEQ ID NO: 333)] | 50 to 75% |
| YEIEARNQVF [YEIEARNQVF (SEQ ID NO: 327)] | 50 to 75% |
| EENDQSTHKW [EENDQSTHKW (SEQ ID NO: 483)] | 50 to 75% |
| SEIEQEIGSL [SEIEQEIGSL (SEQ ID NO: 478)] | 50 to 75% |
| SEIEDSTKQVF [SEIEDSTKQVF (SEQ ID NO: 485)] | 50 to 75% |

| Binder | peptide exchange yield |
| --- | --- |
| AETPIQNVI [AETPIQNVI (SEQ ID NO: 364)] | 50 to 75% |
| EEIERFFKL [EEIERFFKL (SEQ ID NO: 369)] | 50 to 75% |
| AEVPTGVII [AEVPTGVII (SEQ ID NO: 360)] | 50 to 75% |
| MEMQKSPVF [MEMQKSPVF (SEQ ID NO: 373)] | 50 to 75% |
| AEIQGNINHV [AEIQGNINHV (SEQ ID NO: 348)] | 50 to 75% |
| EEIEGKGSFTYF [EEIEGKGSFTYF (SEQ ID NO: 341)] | 50 to 75% |
| TDSIHAWTF [TDSIHAWTF (SEQ ID NO: 324)] | 50 to 75% |
| SEGSEPALLHSW [SEGSEPALLHSW (SEQ ID NO: 338)] | 50 to 75% |
| AEDQLHHSF [AEDQLHHSF (SEQ ID NO: 487)] | 50 to 75% |
| ALNPYQYQY [ALNPYQYQY (SEQ ID NO: 347)] | 50 to 75% |
| NEHPSNNW [NEHPSNNW (SEQ ID NO: 329)] | 50 to 75% |
| EDAQGHIW [EDAQGHIW (SEQ ID NO: 331)] | 50 to 75% |
| TEDPTILRI [TEDPTILRI (SEQ ID NO: 354)] | 50 to 75% |
| AEQDMRELTY [AEQDMRELTY (SEQ ID NO: 349)] | 50 to 75% |
| SEDDPILQI [SEDDPILQI (SEQ ID NO: 486)] | 50 to 75% |
| EEGRVYLF [EEGRVYLF (SEQ ID NO: 356)] | 50 to 75% |
| SEKGVIQVY [SEKGVIQVY (SEQ ID NO: 362)] | 50 to 75% |
| QEMQHFLGL [QEMQHFLGL (SEQ ID NO: 326)] | 50 to 75% |
